The source of these data is article PMC10397247.

The target of one assay is T1, O9-bS.
T1 chain: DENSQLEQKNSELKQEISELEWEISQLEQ
Kind of assay: two-hybrid library CCNG1.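 Also: natural log of median RNA to DNA barcode read ratio; higher means stronger binding.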

In a further assay the target is T2, P8-AA.
T2 chain: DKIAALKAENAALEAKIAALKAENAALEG
In words: two-hybrid library CCmax.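 Also: natural log of median RNA to DNA barcode read ratio; higher means stronger binding.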

The next assay concerns the target T3, zCON9_B.
T3 chain: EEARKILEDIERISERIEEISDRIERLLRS
Kind of assay: two-hybrid library CCmax.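 Also: natural log of median RNA to DNA barcode read ratio; higher means stronger binding.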 The settings on record: mean of both orientations.

A further assay has as its target T4, P9-AA.
T4 chain: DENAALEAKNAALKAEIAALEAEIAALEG
Kind of assay: two-hybrid library CCmax.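 Also: natural log of median RNA to DNA barcode read ratio; higher means stronger binding.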 The settings on record: mean of both orientations.

Another assay concerns the target T5, zCON9_D.
T5 chain: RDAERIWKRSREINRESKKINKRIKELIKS
Kind of assay: two-hybrid library CCmax.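 Also: natural log of median RNA to DNA barcode read ratio; higher means stronger binding.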

A further assay addresses T6, zCON9_A.
T6 chain: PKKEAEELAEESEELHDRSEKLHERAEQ
In words: two-hybrid library CCmax.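 Also: natural log of median RNA to DNA barcode read ratio; higher means stronger binding.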

The target of another assay is T7, O8-bS.
T7 chain: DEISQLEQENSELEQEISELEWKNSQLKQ
Kind of assay: two-hybrid library CCNG1.

The target of another assay is T8, 4H3709-AA.
T8 chain: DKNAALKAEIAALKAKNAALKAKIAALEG
Kind of assay: two-hybrid library CCmax. The settings on record: mean of both orientations.

The next assay addresses T9, 4H3029-AA.
T9 chain: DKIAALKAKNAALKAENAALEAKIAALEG
In words: two-hybrid library CCmax. The settings on record: mean of both orientations.

In the next assay the target is T10, 4H3939-AA.
T10 chain: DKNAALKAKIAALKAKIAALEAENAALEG
Kind of assay: two-hybrid library CCmax. The settings on record: mean of both orientations.

In the next assay the target is T11, 4H3666-AA.
T11 chain: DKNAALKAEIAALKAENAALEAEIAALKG
Kind of assay: two-hybrid library CCmax. The settings on record: mean of both orientations.

In another assay the target is T12, 4H3102-AA.
T12 chain: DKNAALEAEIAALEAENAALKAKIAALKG
Kind of assay: two-hybrid library CCmax. The settings on record: mean of both orientations.

For the next assay, the target named is T13, 4H391-AA.
T13 chain: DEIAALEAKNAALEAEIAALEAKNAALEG
Kind of assay: two-hybrid library CCmax. The settings on record: mean of both orientations.

The next assay has as its target T14, 4H3121-AA.
T14 chain: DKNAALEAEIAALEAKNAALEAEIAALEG
Kind of assay: two-hybrid library CCmax. The settings on record: mean of both orientations.

The target in another assay is T15, 4H428-AA.
T15 chain: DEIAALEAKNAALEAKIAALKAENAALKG
Kind of assay: two-hybrid library CCmax. The settings on record: mean of both orientations.

A further assay deals with T16, 4H2742-AA.
T16 chain: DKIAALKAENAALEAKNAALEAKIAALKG
In words: two-hybrid library CCmax. The settings on record: mean of both orientations.

A further assay has as its target T17, 4H3628-AA.
T17 chain: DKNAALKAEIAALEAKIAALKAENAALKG
In words: two-hybrid library CCmax. The settings on record: mean of both orientations.

For another assay, the target named is T18, 4H971-AA.
T18 chain: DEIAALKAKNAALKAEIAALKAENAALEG
Kind of assay: two-hybrid library CCmax. The settings on record: mean of both orientations.

The target of the next assay is T19, 4H3417-AA.
T19 chain: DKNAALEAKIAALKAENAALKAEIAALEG
In words: two-hybrid library CCmax. The settings on record: mean of both orientations.

Another assay concerns the target T20, 4H2948-AA.
T20 chain: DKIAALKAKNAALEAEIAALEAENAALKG
In words: two-hybrid library CCmax. The settings on record: mean of both orientations.

In the next assay the target is T21, 4H478-AA.
T21 chain: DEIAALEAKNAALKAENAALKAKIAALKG
In words: two-hybrid library CCmax. The settings on record: mean of both orientations.

For a further assay, the target named is T22, 4H3591-AA.
T22 chain: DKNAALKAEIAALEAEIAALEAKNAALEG
In words: two-hybrid library CCmax. The settings on record: mean of both orientations.

The next assay addresses T23, 4H3066-AA.
T23 chain: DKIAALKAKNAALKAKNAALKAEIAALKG
In words: two-hybrid library CCmax. The settings on record: mean of both orientations.

The target of a further assay is T24, 4H497-AA.
T24 chain: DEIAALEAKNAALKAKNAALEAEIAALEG
In words: two-hybrid library CCmax. The settings on record: mean of both orientations.

The next assay has as its target T25, 4H656-AA.
T25 chain: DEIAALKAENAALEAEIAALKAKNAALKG
In words: two-hybrid library CCmax. The settings on record: mean of both orientations.

The target of the next assay is T26, 4H2713-AA.
T26 chain: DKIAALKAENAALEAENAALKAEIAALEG
Kind of assay: two-hybrid library CCmax.

Another assay concerns the target T27, 4H3920-AA.
T27 chain: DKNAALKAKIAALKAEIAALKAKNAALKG
In words: two-hybrid library CCmax. The settings on record: mean of both orientations.

A further assay concerns the target T28, 4H3446-AA.
T28 chain: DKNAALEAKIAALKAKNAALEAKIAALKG
Kind of assay: two-hybrid library CCmax. The settings on record: mean of both orientations.

The target in a further assay is T29, 4H675-AA.
T29 chain: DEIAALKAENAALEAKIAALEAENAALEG
In words: two-hybrid library CCmax. The settings on record: mean of both orientations.

A further assay deals with T30, 4H2991-AA.
T30 chain: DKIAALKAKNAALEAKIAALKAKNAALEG
Kind of assay: two-hybrid library CCmax. The settings on record: mean of both orientations.

The target of the next assay is T31, P3-AA.
T31 chain: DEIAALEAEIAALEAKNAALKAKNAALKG
In words: two-hybrid library CCmax. The settings on record: mean of both orientations.

For the next assay, the target named is T32, P11-AA.
T32 chain: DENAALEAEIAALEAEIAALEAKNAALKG
In words: two-hybrid library CCmax.

The target in a further assay is T33, P2-AA.
T33 chain: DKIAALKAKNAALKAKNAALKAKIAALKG
Kind of assay: two-hybrid library CCmax. The settings on record: mean of both orientations.

Another assay deals with T34, P7-AA.
T34 chain: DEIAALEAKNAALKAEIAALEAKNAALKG
Kind of assay: two-hybrid library CCmax.

The target of the next assay is T35, P4-AA.
T35 chain: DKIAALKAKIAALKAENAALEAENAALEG
Kind of assay: two-hybrid library CCmax. The settings on record: mean of both orientations.

In another assay the target is T36, P12-AA.
T36 chain: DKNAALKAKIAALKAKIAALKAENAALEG
In words: two-hybrid library CCmax. The settings on record: mean of both orientations.

Like-named read-outs stand apart in the source and are kept apart here.

B1: O9-bS (peptide)
chain: DENSQLEQKNSELKQEISELEWEISQLEQ
Turning to B1, in the assay with O9-bS (mean of both orientations), the interaction score is -1.16.

B2: P8-AA (peptide)
chain: DKIAALKAENAALEAKIAALKAENAALEG
Regarding B2, the interaction score with P8-AA is -1.57; with zCON9_B, -1.66; in the assay with P9-AA, -0.207; with zCON9_D (mean of both orientations) it was -1.98; with zCON9_A, -1.74.

B3: O8-bS (peptide)
chain: DEISQLEQENSELEQEISELEWKNSQLKQ
In the case of B3, the results for the interaction score in the assay with O8-bS and in the assay with O9-bS were -2.12 and -0.376, respectively.

B4: 4H2713-AA (peptide)
chain: DKIAALKAENAALEAENAALKAEIAALEG
Consider B4, for which the interaction score is -1.95 in the assay with 4H3709-AA; 1.75 in the assay with 4H3029-AA; -1.59 in the assay with 4H3939-AA; -1.39 in the assay with 4H3666-AA; -0.638 with 4H3102-AA; -1.91 with 4H391-AA. The interaction score with 4H3121-AA was -1.64; with 4H428-AA, -1.87; with 4H2742-AA, -0.508; in the assay with 4H3628-AA it was -1.22; in the assay with 4H971-AA, -1.57; with 4H3417-AA it was -1.19. For the same molecule, the interaction score with 4H2948-AA was -1.84; in the assay with 4H478-AA, 2.27; in the assay with 4H3591-AA, -1.25; with 4H3066-AA, 1.76; with 4H497-AA, 0.0354; in the assay with 4H656-AA it was -1.66. Further, the interaction score with 4H2713-AA was 0.691; with 4H3920-AA it was -1.61; in the assay with 4H3446-AA, -1.15; in the assay with 4H675-AA, -1.83; with 4H2991-AA, -1.79.

B5: P11-AA (peptide)
chain: DENAALEAEIAALEAEIAALEAKNAALKG
With B5, the interaction score in the assay with P3-AA was -1.5; with P8-AA (mean of both orientations), -1.23; in the assay with P11-AA, -1.19; in the assay with zCON9_B, -0.891; with P2-AA it was 0.243; with P7-AA (mean of both orientations), -1.07. Moreover, the interaction score is 1.68 with P4-AA; -1.18 in the assay with P9-AA; -1.93 with zCON9_D; -1.48 in the assay with zCON9_A; 1.97 with P12-AA.

B6: P7-AA (peptide)
chain: DEIAALEAKNAALKAEIAALEAKNAALKG
Regarding B6, the interaction score was 1.87 in the assay with P8-AA (mean of both orientations); -1.46 with zCON9_B; -1.79 in the assay with P7-AA; -1.14 with P9-AA; -1.95 with zCON9_D; -1.78 in the assay with zCON9_A.
